From paper doi:10.1101/2022.05.14.22275020, “A homozygous p.(Arg371Ser) mutation in FICD de-regulates AMPylation of the human endoplasmic reticulum chaperone BiP causing infancy-onset diabetes and severe neurodevelopmental delay” (medRxiv, 2022)
Changes are numbered by the printed parent chain. Names may count otherwise.

B1: wild-type FICD, structured luminal region (residues 104-445) (enzyme, human, UniProt Q9BVA6 104-445, looked up)
chain: LEARAALNQALEMKRQGKREKAQKLFMHALKMDPDFVDALTEFGIFSEEDKDIIQADYLYTRALTISPYHEKALVNRDRTLPLVEEIDQRYFSIIDSKVKKVMSIPKGNSALRRVMEETYYHHIYHTVAIEGNTLTLSEIRHILETRYAVPGKSLEEQNEVIGMHAAMKYINTTLVSRIGSVTISDVLEIHRRVLGYVDPVEAGRFRTTQVLVGHHIPPHPQDVEKQMQEFVQWLNSEEAMNLHPVEFAALAHYKLVYIHPFIDGNGRTSRLLMNLILMQAGYPPITIRKEQRSDYYHVLEAANEGDVRPFIRFIAKCTETTLDTLLFATTEYSVALPEAQP
notes: human FICD (Fic domain-containing protein), structured luminal region, residues 104-445; purification as in Perera et al., 2019 and 2021; also called FICD^WT; WT; source: E. coli T7 Express lysY/Iq (NEB), purified (Ni-NTA, Ulp1 cleavage, anion exchange, gel filtration); not shown: His6, N-terminal, cleaved; SUMO, N-terminal, cleaved
B2: FICD^R371S, structured luminal region (residues 104-445) (enzyme, human, UniProt Q9BVA6 104-445, looked up)
chain: B1 chain with R268S
notes: human FICD, structured luminal region, residues 104-445, with the patient variant p.(Arg371Ser) (NM_007076.2:c.1113G>C); Rare human variant found in patients; also called Arg371Ser mutant FICD; p.(Arg371Ser); source: E. coli T7 Express lysY/Iq (NEB), purified (Ni-NTA, Ulp1 cleavage, anion exchange, gel filtration); not shown: His6, N-terminal, cleaved; SUMO, N-terminal, cleaved

Target: the molecule itself
Test: SEC; analytical SEC, Agilent Bio SEC-3 HPLC column, TNT buffer (25 mM Tris pH 8.0, 150 mM NaCl, 1 mM TCEP), 25 °C; proteins diluted to a range of concentrations (given in Figure 3a) and incubated at least 1 h at room temperature; dimer against monomer

| Protein | stoichiometry N |
| --- | --- |
| B1 | 2 |
| B2 | 2 |
